Source: the PETadex activity labels

Experiments:
[1] = pH 7.2, part of the chain shown

B1: unnamed (protein)
chain: MIRMALKPLVAACLLASLSTAPQAAPSPYSTLVVFGDSLSDAGQFPDPAGPAGSTSRFTNRVGPTYQNGSGEIFGPTAPMLLGNQLGIAPGDLAASTSPVNAQQGIADGNNWAVGGYRTDQIYDSITAANGSLIERDNTLLRSRDGYLVDRARQGLGADPNALYYITGGGNDFLQGRILNDVQAQQAAGRLVDSVQALQQAGARYIVVWLLPDLGLTPATFGGPLQPFASQLSGTFNAELTAQLSQAGANVIPLNIPLLLKEGMANPASFGLAADQNLIGTCFSGNGCTMNPTYGINGSTPDPSKLLFNDSVHPTITGQRLIADYTYSLLSAPWELTLLPEMAHGTLRAYQDELRSQWQADWENWQNVGQWRGFVGGGGQRLDFDSQDSAASGDGNGYNLTLGGSYRIDEAWRAGVAAGFYRQKLEAGAKDSDYRMNSYMASAFVQYQENRWWADAALTGGYLDYDDLKRKFALGGGERSEKGDTNGHLWAFSARLGYDIAQQADSPWHLSPFVSADYARVEVDGYSEKGASATALDYDDQKRSSKRLGAGLQGKYAFGSDTQLFAEYAHEREYEDDTQDLTMSLNSLPGNRFTLEGYTPQDHLNRVSLGFSQKLAPELSLRGGYNWRKGEDDTQQSVSLALSLDF
Q: Which results are given for B1?
A: Km (p-NP-C4; pH 7.2): 700 µM; kcat (p-NP-C4; pH 7.2): 247 s⁻¹; kcat/Km (p-NP-C4; pH 7.2): 353000 M⁻¹ s⁻¹

B2: unnamed (protein)
chain: MWLLPLVLTSLASSATWAGQPASPPVVDTAQGRVLGKYVSLEGLAQPVAVFLGVPFAKPPLGSLRFAPPQPAEPWSFVKNTTSYPPMCCQDPVVEQMTSDLFTNGKERLTLEFSEDCLYLNIYTPADLTKRGRLPVMVWIHGGGLVLGGAPMYDGVVLAAHENVVVVAIQYRLGIWGFFSTGDEHSRGNWGHLDQVAALHWVQENIANFGGDPGSVTIFGESAGGESVSVLVLSPLAKNLFHRAISESGVALTVALVRKDMKAAAKQIAVLAGCKTTTSAVFVHCLRQKSEDELLDLTLKMKFLTLDFHGDQRESHPFLPTVVDGVLLPKMPEEILAEKDFNTVPYIVGINKQEFGWLLPTMMGFPLSEGKLDQKTATSLLWKSYPIANIPEELTPVATDKYLGGTDDPVKKKDLFLDLMGDVVFGVPSVTVARQHRDAGAPTYMYEFQYRPSFSSDKKPKTVIGDHGDEIFSVFGFPLLKGDAPEEEVSLSKTVMKFWANFARSGNPNGEGLPHWPMYDQEEGYLQIGVNTQAAKRLKGEEVAFWNDLLSKEAAKKPPKIKHAEL
Q: B2 was tested. Which Km (p-NP-C2; pH 7.4, 37 °C) did it give?
A: 520 µM

Q: And the kcat (p-NP-C2; pH 7.4, 37 °C)?
A: 20.2 s⁻¹

Q: What about the kcat/Km (p-NP-C2; pH 7.4, 37 °C) of the same protein?
A: 38800 M⁻¹ s⁻¹

Q: And the Km (p-NP-C4; pH 7.4, 37 °C)?
A: 140 µM

Q: And the kcat (p-NP-C4; pH 7.4, 37 °C)?
A: 27.4 s⁻¹

Q: And the kcat/Km (p-NP-C4; pH 7.4, 37 °C)?
A: 196000 M⁻¹ s⁻¹

B3: unnamed (protein)
chain: MSEEVSKNLSETLFVKHKQAKETSALTQYMPTSQSLLDEIKEKNGFSWYRNLRRLQWVWQGVDPIEQEQVLARIASSKHSRTDEQWLDTVMGYHSGNWAYEWTRLGMEHQKRAGEMTNEAASEALFSASLCYSIAGYPHLKSDNLAIQAQVLANSAYLEAAKKSKYIIKQLEIPFEKGKITAHLHLTNTDKPHPVVIVSAGLDSLQTDMWRLFRDHLAKHDIAMLTVDMPSVGYSSKYPLTEDYSRLHQAVLNELFSIPYVDHHRVGLIGFRFGGNAMVRLSFLEQEKIKACVILGAPIHDIFASPQKLQQMPKMYLDVLASRLGKSVVDIYSLSGQMAAWSLKVQGFLSSRKTKVPILAMSLEGDPVSPYSDNQMVAFFSTYGKAKKISSKTITQGYEQSLDLAIKWLEDELLR
Q: B3 was tested. Which Km (p-NP-C2; pH 7.5, 25 °C) did it give?
A: 18600 µM

Q: What about the kcat (p-NP-C2; pH 7.5, 25 °C) of the same protein?
A: 0.67 s⁻¹

Q: What about the kcat/Km (p-NP-C2; pH 7.5, 25 °C) of the same protein?
A: 36 M⁻¹ s⁻¹

B4: unnamed (protein)
chain: MRKAPLLRFTLASLALACSQALAGPSPYSTLIVFGDSLADAGQFPDLVGGTPGARFTNRDADGNFAPVSPMILGGRLGVAPGDLNPSTSVGIQPDGNNWAVGGYTTQQILDSITTTSETVIPPGNPNAGLVLRERPGYLANGLRADPNALYYLTGGGNDFLQGLVNSPADAVAAGARLAASAQALQQGGARYIMVWLLPDLGQTPNFSGTPQQNPLSLLSAAFNQSLISQLGQIDAQIIPLNIPLLLSEALASPSQFGLASDQNLVGTCYSGDSCVENPVYGINGTTPDPTKLLFNDSVHPTIAGQQLIADYAYSILAAPWELTLLPEMAHASLRAHQDELRNQWQTPWQAVGQWQAFVASGAQDLDFDGQHSAASGDGRGYNLTVGGSYRLNDAWRLGLAGGANRQKLEAGEQDSDYKLNSYMASAFAQYRQDRWWADAALTAGHLDYSDLKRTFALGVNDRSEKGDTDGEAWAMSGRLGYNLAADTSNWQLAPFISADYARVKVDGYDEKSGRSTALGFDDQERTSRRLGVGLLGSVQVLPSTRLFAEVAQEHEFEDDEQDVTMHLTSLPANDFTLTGYTPHSDLTRASLGVSHELVAGVHLRGNYNWRKSDELTQQGISVGVSVDF
Q: With B4 as the protein, how does the Km (p-NP-C4; pH 7.2) read?
A: 300 µM

B5: unnamed (protein)
chain: MRLHRLRARLSAVACGLLLLLVRGQGQDSASPIRTTHTGQVLGSLVHVKGANAGVQTFLGIPFAKPPLGPLRFAPPEPPESWSGVRDGTTHPAMCLQDLTAVESEFLSQFNMTFPSDSMSEDCLYLSIYTPAHSHEGSNLPVMVWIHGGALVFGMASLYDGSMLAALENVVVVIIQYRLGVLGFFSTGDKHATGNWGYLDQVAALRWVQQNIAHFGGNPDRVTIFGESAGGTSVSSLVVSPISQGLFHGAIMESGVALLPGLIASSADVISTVVANLSACDQVDSEALVGCLRGKSKEEILAINKPFKMIPGVVDGVFLPRHPQELLASADFQPVPSIVGVNNNEFGWLIPKVMRIYDTQKEMDREASQAALQKMLTLLMLPPTFGDLLREEYIGDNGDPQTLQAQFQEMMADSMFVIPALQVAHFQCSRAPVYFYEFQHQPSWLKNIRPPHMKADHGDELPFVFRSFFGGNYIKFTEEEEQLSRKMMKYWANFARNGNPNGEGLPHWPLFDQEEQYLQLNLQPAVGRALKAHRLQFWKKALPQKIQELEEPEERHTEL
Q: Which results are given for B5?
A: Km (p-NP-C4; pH 8, 37 °C): 31 µM; kcat (p-NP-C4; pH 8, 37 °C): 70 s⁻¹; kcat/Km (p-NP-C4; pH 8, 37 °C): 2.26e+06 M⁻¹ s⁻¹

B6: unnamed (protein)
chain: MSKISEAVKRARAAFSSGRTRPLQFRIQQLEALQRLIQEQEQELVGALAADLHKNEWNAYYEEVVYVLEEIEYMIQKLPEWAADEPVEKTPQTQQDELYIHSEPLGVVLVIGTWNYPFNLTIQPMVGAIAAGNSVVLKPSELSENMASLLATIIPQYLDKDLYPVINGGVPETTELLKERFDHILYTGSTGVGKIIMTAAAKHLTPVTLELGGKSPCYVDKNCDLDVACRRIAWGKFMNSGQTCVAPDYILCDPSIQNQIVEKLKKSLKEFYGEDAKKSRDYGRIISARHFQRVMGLIEGQKVAYGGTGDAATRYIAPTILTDVDPQSPVMQEEIFGPVLPIVCVRSLEEAIQFINQREKPLALYMFSSNDKVIKKMIAETSSGGVAANDVIVHITLHSLPFGGVGNSGMGSYHGKKSFETFSHRRSCLVRPLMNDEGLKVRYPPSPAKMTQH
Q: For B6, which Km (p-NP-C2; pH 7.4, 25 °C) is on record?
A: 200 µM

Q: What about the kcat (p-NP-C2; pH 7.4, 25 °C) of the same protein?
A: 1.43 s⁻¹

Q: And the kcat/Km (p-NP-C2; pH 7.4, 25 °C)?
A: 7170 M⁻¹ s⁻¹

B7: unnamed (protein)
chain: MWLRAFILATLSASAAWGHPSSPPVVDTVHGKVLGKFVSLEGFAQPVAIFLGIPFAKPPLGPLRFTPPQPAEPWSFVKNATSYPPMCTQDPKAGQLLSELFTNRKENIPLKLSEDCLYLNIYTPADLTKKNRLPVMVWIHGGGLMVGAASTYDGLALAAHENVVVVTIQYRLGIWGFFSTGDEHSRGNWGHLDQVAALRWVQDNIASFGGNPGSVTIFGESAGGESVSVLVLSPLAKNLFHRAISESGVALTSVLVKKGDVKPLAEQIAITAGCKTTTSAVMVHCLRQKTEEELLETTLKMKFLSLDLQGDPRESQPLLGTVIDGMLLLKTPEELQAERNFHTVPYMVGINKQEFGWLIPMQLMSYPLSEGQLDQKTAMSLLWKSYPLVCIAKELIPEATEKYLGGTDDTVKKKDLFLDLIADVMFGVPSVIVARNHRDAGAPTYMYEFQYRPSFSSDMKPKTVIGDHGDELFSVFGAPFLKEGASEEEIRLSKMVMKFWANFARNGNPNGEGLPHWPEYNQKEGYLQIGANTQAAQKLKDKEVAFWTNLFAKKAVEKPPQTEHIEL
Q: How did the Km (p-NP-C4; pH 8, 37 °C) turn out when B7 was run?
A: 27 µM

Q: What about the kcat (p-NP-C4; pH 8, 37 °C) of the same protein?
A: 17 s⁻¹

Q: What about the kcat/Km (p-NP-C4; pH 8, 37 °C) of the same protein?
A: 630000 M⁻¹ s⁻¹

B8: unnamed (protein)
chain: MTVTDIILIHGALNRGACYDAVVPLLEARGYRVHAPDLTGHTPGDGGHLSVVDMEHYTRPVADILARAEGQSILLGHSLGGASISWLAQHHPDKVAGLIYLTAVLTAPGITPETFVLPGEPNRGTPHALDLIQPVDEGRGLQADFSRLERLREVFMGDYPGEGMPPAEQFIQTQSTVPFGTPNPMEGRALEIPRLYIEALDDVVIPIAVQRQMQKEFPGPVAVVSLPASHAPYYSMPERLAEAIADFADAPAEYRQTATKAGPDRPAGADGGRADRADLP
Q: Which Km (p-NP-C2; pH 7.5, 37 °C) does the source give for B8 here?
A: 124 µM

Q: What about the kcat (p-NP-C2; pH 7.5, 37 °C) of the same protein?
A: 183 s⁻¹

Q: And the kcat/Km (p-NP-C2; pH 7.5, 37 °C)?
A: 1.48e+06 M⁻¹ s⁻¹

B9: unnamed (protein)
chain: MDGVLWRVRTAALMAALLALAAWALVWASPSVEAQSNPYQRGPNPTRSALTADGPFSVATYTVSRLSVSGFGGGVIYYPTGTSLTFGGIAMSPGYTADASSLAWLGRRLASHGFVVLVINTNSRFDYPDSRASQLSAALNYLRTSSPSAVRARLDANRLAVAGHSMGGGGTLRIAEQNPSLKAAVPLTPWHTDKTFNTSVPVLIVGAEADTVAPVSQHAIPFYQNLPSTTPKVYVELDNASHFAPNSNNAAISVYTISWMKLWVDNDTRYRQFLANVNDPALSDFRTNNRHAQ
Q: What does the source list for B9?
A: Km (p-NP-C4; pH 8, 30 °C): 250 µM; kcat (p-NP-C4; pH 8, 30 °C): 342 s⁻¹; kcat/Km (p-NP-C4; pH 8, 30 °C): 1.37e+06 M⁻¹ s⁻¹; Km (p-NP-C4; pH 8, 50 °C): 180 µM; kcat (p-NP-C4; pH 8, 50 °C): 196 s⁻¹; kcat/Km (p-NP-C4; pH 8, 50 °C): 1.09e+06 M⁻¹ s⁻¹; Km (p-NP-C4; pH 8, 70 °C): 190 µM; kcat (p-NP-C4; pH 8, 70 °C): 49 s⁻¹; kcat/Km (p-NP-C4; pH 8, 70 °C): 258000 M⁻¹ s⁻¹

B10: unnamed (protein)
chain: MRALLLSGCLALVLLTQQAAAQTLLVVGDSISAALGLDTSQGWVALLQKRLADEGYDYRVVNASISGDTSAGGLARLPALLAEEKPALVVIELGGNDGLRGMAPAQLQQNLASMAQKARAEGAKVLLLGIQLPPNYGPRYIEAFSRVYGAVAAQEKTALVPFFLEGVGGVQGMMQADGIHPALAAQPRLLENVWPTLKPLL
Q: Which Km (p-NP-C4; [1]) does the source give for B10 here?
A: 1000 µM

Q: And the kcat (p-NP-C4; [1])?
A: 12 s⁻¹

Q: What about the kcat/Km (p-NP-C4; [1]) of the same protein?
A: 12000 M⁻¹ s⁻¹
